Data from the DeepSol protein solubility set.

Assay: soluble on expression in E. coli; label from the status in PepcDB or PDB records

| Sequence | soluble on expression in E. coli |
| --- | --- |
| MSLDRVEEQRITIPDFQKLVEAQTGSEISMDDFYPASSVRPISDFVAAIEGEPQVTFTCHQHCGTATYIFLEDDKIIPITRFIDVDRFFEVLEKGKDEIEEGGIAAKARVIARSAIELPKTLDKSEAPESVDIKRILTSIFKERSYTALGEFHYNTLLISCMHFMDPWNFDIDRVRRCVIHYALPDGRIVPFCTMNSIHRADVERHFAKPLNESKEGHHHHHH | not soluble |
| MSLDSFLDIQRKKADADSKFIDCNGFRVHYKRYGSGKPPFIVLLHGSFLSIRSWRDVAVPLAENATVLAFDRPAFGLTSRPVPSRSNAARYSPEAQSDLVVALMDKLGMDRAVIVGNSTGGTLALLTALRHPRRVQGLVLVGAMIYSGYANSEVPAVMKPFMKAMSPVFSRLMKVIITKLYDKNIRGFWHVKSRLSDETLAAFRNDFMVGDWSRGFWELFLETHRLYFNRRVSSAWAPSLVVTGEHDLTVKTEESFRLARELPRAELLVIPDCAHLPQEEQPAAFVAGVKKFVEKLVEGHHHHHH | soluble |
| MSLDTDREQILAEFLSIDRTKVRRIEHHRCHAAYSYYASKYRNKPILALTVDGWGDGKDATIGIFDEKGKYSRVYESDQCAIGRIYRYMTLMLGMKPNEHEFKVMGLAPYGKETHAKKALDILRNTLYVDGEEFKWKEKPKDSYFWFKERFEGVRFDNIAFALQKWTEELLVEWVKNAINKYKIHDIVISGGVAMNIKAMGKIADLPEVKSLFIGGSASDESMAISSGICLAEDLTKESSREWNSNTIESLTRLYLGPSASLKEEERVVDGLDKKKFEIIENPENKRIAEVLFEGKILARAAGRMEFGQRALGNRSILADPIHLKIKEKINSAIKSRDFWMPFAPVVMDTFVERYLLNPKSLESPHMTLSFDTTEEGYDAMSAACHPADRTARAQILKEHDNPELYSLLKAFQHLTGRGALLNTSFNLHGFPIVNSPSEAVDVLVNSGLDGLILNYFLILKKEGHHHHHH | not soluble |
| MSLDTNNALARFFDSSGYNANVSNPSAYQGQSANYYTGGSLFVRTPIVDAQLVSVTVPSISAGCSGIDMFMGGFSHVSSDQLVKVGKAIIHNAPPFIVNLALQTWAPQLKQNLDNLQAIADKYLNQSVNSCEAAQAAIGGLAAFAAPATKKHVCATLGTQNNAFSDWVQAQHECGAGGKAAGQLANAKNDPALKDITKTNHNVVWSAIMNNAFLSADKHLAQFMMSLSGTYVYDANGNPRYYPSLLTDNNNLVNVLLEGGKADIYQCRNTDPKACITITKPNNLSISQANGIQSQISKQLESILRHIATDQKLTDKQKSFLELTQTPVLKFFMDDLSANQTPDINSYSRMIAVELLNQYLTNMLSIASQSLANTNNSVEDIALITRDIDNAKRFTTGLADKAIETLNQRNQLIESQRKTAQRSQKDIGITTKPTQAYGNEGHHHHHH | not soluble |
| MSLDVPAMPERVETQGVEFVEFSTAPEEKANLEVLLATLGFEKSAQHRNRAVDLYTQGDIRIVINTSDDGDSFAGASYSIHGTNAYAFGLKVDDAQAALARAEALGAPTFAEPRNTGEVAVPAIQGVGNGVIYFLDASPALASIWDKEFVPTQGQKAMSDAGLTRVDHLAQTTHYDEMLTWLLFYTSLFSSRRTPMIDVVDPGGLVRSQAIESVPAANFRLTMNGADNRKTFAGKFLAEGFGSSIQHIAFATDDIFATAKAMQARGFHALPISRNYYDDLEARFGLEPEFSDALREASILYDRDDSGEYFQIYSRTFGEGFFFEVIERRGAYGGYGAMNAPFRIAAQRRLAEGHHHHHH | soluble |
| MSLDVTLTQPSIPDQSEDRRVRTSGSLAGHLPYGMADTLGKHEHLSTVDLVVPRFNASETEMLLGLFDGQALSSGGSKIAKYLHENFGHIFALELKALKTRLNETPVDALRRAFLALNKDLVTIAIQQSEERPIQTHRNSGQPIILTKEDLNSGGVATVVYLQSTELYVANVGDAQAMVIQTDGTHKMLTRKHDPAEPTERSRIREAGGWVSRNGRLNDLLQVSRAFGYVDLMPAVQAAPYVSNMTIREQDDIILIATGELWEYLSPGLVTDVARAERQDLMRAAQKLRDLAIAYGASGKIMVMMISVADEGHHHHHH | soluble |
| MSLEDNERVDHLIKEGYEIIQNDEVFSFSTDALLLGYLTEVRKNDKVMDLCSGNGVIPLLLAAKSTQPIEGIEIQEQLVSMARRSFKLNDLNDRLTMHHMDLKDVYQTFQPAQYTLVTCNPPYFKMNQNHQHQKEAHKIARHEIMCNLKDCIEAARHLLKEGGRFIMVHRAERLMDVLTELRHGKIEPKALTLVYSKHDKPAQTIVVEGRKGGNQGLDIRNPLYIYNEDGSYSDEMKGVYYGEGHHHHHH | soluble |
